{"source": "paper doi:10.1101/162842", "target": "mCardinal", "experiment": "SEC + AUC"}
{"substance": "mCardinal", "values": [{"measurement": "stoichiometry N", "result": 2}]}
